From paper PMC5156543 (Molecular Biology of the Cell, 2016)

Biological target: T1, Vps35-3xHA (S. cerevisiae, UniProt P34110 1-944)
T1 sequence: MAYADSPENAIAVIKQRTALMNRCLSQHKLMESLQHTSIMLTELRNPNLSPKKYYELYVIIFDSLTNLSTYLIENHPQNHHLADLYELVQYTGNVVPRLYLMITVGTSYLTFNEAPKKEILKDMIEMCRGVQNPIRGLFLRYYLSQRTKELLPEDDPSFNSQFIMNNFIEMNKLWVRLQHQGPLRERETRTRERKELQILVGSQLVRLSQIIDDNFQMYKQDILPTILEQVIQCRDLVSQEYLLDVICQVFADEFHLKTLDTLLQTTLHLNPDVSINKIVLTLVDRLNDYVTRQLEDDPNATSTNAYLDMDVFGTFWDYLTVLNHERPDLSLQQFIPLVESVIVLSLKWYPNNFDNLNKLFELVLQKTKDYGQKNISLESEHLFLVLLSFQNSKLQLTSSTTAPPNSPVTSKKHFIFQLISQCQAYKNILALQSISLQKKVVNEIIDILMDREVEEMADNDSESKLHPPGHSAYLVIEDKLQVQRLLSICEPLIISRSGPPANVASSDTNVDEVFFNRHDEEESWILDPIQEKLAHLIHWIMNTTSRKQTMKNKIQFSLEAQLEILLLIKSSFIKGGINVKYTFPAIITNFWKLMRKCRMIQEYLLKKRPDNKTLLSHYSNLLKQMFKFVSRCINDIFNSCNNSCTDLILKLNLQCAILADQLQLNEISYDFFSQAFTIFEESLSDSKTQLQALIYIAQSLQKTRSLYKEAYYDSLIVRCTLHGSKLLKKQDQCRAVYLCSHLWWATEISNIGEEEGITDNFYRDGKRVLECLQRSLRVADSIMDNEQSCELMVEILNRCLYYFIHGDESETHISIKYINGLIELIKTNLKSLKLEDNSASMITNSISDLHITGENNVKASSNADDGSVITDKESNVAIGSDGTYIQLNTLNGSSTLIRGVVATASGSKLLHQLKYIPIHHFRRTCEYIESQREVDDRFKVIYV
Assay: co-IP

B1: Δ63-125Chs3-GFP (natural protein)
chain: MTGLNGDDPDDYYLNLNQDEESLLRSRHSVGSGAPHRQGSLVRPERSRLNNPDNPHFYYAQKDEGVAEDEFDKDGDVDNFEESSTQPINKSIKPLRKETNDTLSFWQMYCYFITFWAPAPILAFCGMPKKERQMAWREKVALISVILYIGAIVAFLTFGFTKTVCSSSKLRLKNNEVSTEFVVINGKAYELDTSSRSGIQDVEVDSDTLYGPWSDAGKDASFLFQNVNGNCHNLITPKSNSSIPHDDDNNLAWYFPCKLKNQDGSSKPNFTVENYAGWNCHTSKEDRDAFYGLKSKADVYFTWDGIKNSSRNLIVYNGDVLDLDLLDWLEKDDVDYPVVFDDLKTSNLQGYDLSLVLSNGHERKIARCLSEIIKVGEVDSKTVGCIASDVVLYVSLVFILSVVIIKFIIACYFRWTVARKQGAYIVDNKTMDKHTNDIEDWSNNIQTKAPLKEVDPHLRPKKYSKKSLGHKRASTFDLLKKHSSKMFQFNESVIDLDTSMSSSLQSSGSYRGMTTMTTQNAWKLSNENKAVHSRNPSTLLPTSSMFWNKATSSPVPGSSLIQSLDSTIIHPDIVQQPPLDFMPYGFPLIHTICFVTCYSEDEEGLRTTLDSLSTTDYPNSHKLLMVVCDGLIKGSGNDKTTPEIALGMMDDFVTPPDEVKPYSYVAVASGSKRHNMAKIYAGFYKYDDSTIPPENQQRVPIITIVKCGTPAEQGAAKPGNRGKRDSQIILMSFLEKITFDERMTQLEFQLLKNIWQITGLMADFYETVLMVDADTKVFPDALTHMVAEMVKDPLIMGLCGETKIANKAQSWVTAIQVFEYYISHHQAKAFESVFGSVTCLPGCFSMYRIKSPKGSDGYWVPVLANPDIVERYSDNVTNTLHKKNLLLLGEDRFLSSLMLKTFPKRKQVFVPKAACKTIAPDKFKVLLSQRRRWINSTVHNLFELVLIRDLCGTFCFSMQFVIGIELIGTMVLPLAICFTIYVIIFAIVSKPTPVITLVLLAIILGLPGLIVVITATRWSYLWWMCVYICALPIWNFVLPSYAYWKFDDFSWGDTRTIAGGNKKAQDENEGEFDHSKIKMRTWREFEREDILNRKEESDSFVA
For B1, the “level of coIP relative to wild-type Chs3” value was ~0.25 of the level with wild-type Chs3.
